In publication PMC7839550 (Angewandte Chemie (International Ed. in English), 2020):

T1: AtHMT (Arabidopsis thaliana, UniProt Q0WP12, V140T)
T1 sequence (Q0WP12 1-227 V140T): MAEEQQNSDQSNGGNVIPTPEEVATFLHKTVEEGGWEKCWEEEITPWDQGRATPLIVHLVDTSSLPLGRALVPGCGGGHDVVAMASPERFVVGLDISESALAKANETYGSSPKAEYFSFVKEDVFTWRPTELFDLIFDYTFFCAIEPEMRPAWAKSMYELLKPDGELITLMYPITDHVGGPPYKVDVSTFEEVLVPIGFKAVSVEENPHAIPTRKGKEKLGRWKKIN

T2: RsHMT (Raphanus sativus, UniProt C6L2E7)
T2 sequence (C6L2E7 1-226): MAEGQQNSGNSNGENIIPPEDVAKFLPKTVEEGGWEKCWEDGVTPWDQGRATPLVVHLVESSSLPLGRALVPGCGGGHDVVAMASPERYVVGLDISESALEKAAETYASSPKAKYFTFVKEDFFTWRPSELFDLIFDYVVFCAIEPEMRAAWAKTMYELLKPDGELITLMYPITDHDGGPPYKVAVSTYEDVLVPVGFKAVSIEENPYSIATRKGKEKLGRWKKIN

T3: AtHMT (Arabidopsis thaliana, UniProt Q0WP12)
T3 sequence (Q0WP12 1-227): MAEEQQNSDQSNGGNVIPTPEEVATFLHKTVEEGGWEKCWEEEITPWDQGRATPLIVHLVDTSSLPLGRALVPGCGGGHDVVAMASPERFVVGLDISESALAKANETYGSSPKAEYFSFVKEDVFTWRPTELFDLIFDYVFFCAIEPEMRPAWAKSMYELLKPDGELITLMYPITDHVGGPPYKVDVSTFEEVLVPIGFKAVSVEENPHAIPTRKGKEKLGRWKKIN


Assays:
[1] = molecular target: T1, AtHMT; assay: kinetic analysis of methyl transfer to SAH; type: biochemical; settings: read-out: Methyltransferase activity / K M, MeI; co-substrate SAH
[2] = molecular target: T2, RsHMT; assay: alkylation of SAH, specific activity; type: biochemical; settings: co-substrate SAH
[3] = molecular target: T3, AtHMT; assay: kinetic analysis of methyl transfer to SAH; type: biochemical; settings: read-out: Methyltransferase activity / K M, MeI; co-substrate SAH
[4] = substrate: CCI; assay: kinetic analysis of ethyl transfer to SAH; type: biochemical, Arabidopsis thaliana; settings: co-substrate SAH

Row | Molecule | Km [1] [mM] | alkylation of SAH, specific activity [2] | Km [3] [mM] | Km [4] [mM] | kcat [4] [s⁻¹] | kcat/Km [4] [M⁻¹ s⁻¹]
1 | CI [methyl iodide] | 4.7 ± 0.76 | All three HMTs were active using methyl iodide | 1.43 ± 0.19 | – | – | –
2 | CCI [ethyl iodide] | – | all three enzymes had promiscuous activity against ethyl iodide | – | – | – | –
3 | AtHMT (Arabidopsis thaliana) (protein) MAEEQQNSDQSNGGNVIPTPEEVATFLHKTVEEGGWEKCWEEEITPWDQGRATPLIVHLVDTSSLPLGRALVPGCGGGHDVVAMASPERFVVGLDISESALAKANETYGSSPKAEYFSFVKEDVFTWRPTELFDLIFDYVFFCAIEPEMRPAWAKSMYELLKPDGELITLMYPITDHVGGPPYKVDVSTFEEVLVPIGFKAVSVEENPHAIPTRKGKEKLGRWKKIN | – | – | – | 9.36 ± 1.66 | 0.006 ± 0.0005 | 0.633
4 | AtHMT (Arabidopsis thaliana; V140T) (protein) MAEEQQNSDQSNGGNVIPTPEEVATFLHKTVEEGGWEKCWEEEITPWDQGRATPLIVHLVDTSSLPLGRALVPGCGGGHDVVAMASPERFVVGLDISESALAKANETYGSSPKAEYFSFVKEDVFTWRPTELFDLIFDYTFFCAIEPEMRPAWAKSMYELLKPDGELITLMYPITDHVGGPPYKVDVSTFEEVLVPIGFKAVSVEENPHAIPTRKGKEKLGRWKKIN | – | – | – | 11.14 ± 1.52 | 0.0397 ± 0.00267 | 3.57
